{"source": "paper PMC11915804", "about": "“In situ structures of the contractile nanomachine myophage Mu in both its extended and contracted states” (Journal of Virology, 2025)", "molecules": {"B1": {"name": "tube initiator protein gp43 (natural protein, phage Mu, UniProt P08557 1-495, looked up)", "chain": "MFEDALNAVNAVRDKTGGGRKTTGKGTFRNVPFLVIEEQKQAGGRRLVKREYPLRDTGGVNDLGKKLRSRTFSACILNSNAETARDEAGALMDALDAPGSGELVHPDFGTVDVMVDSWECRTKADELNYYAFTVTVYPSLQDTAPDAETDTSAAVPAQAVAVTGSLGDTLSSVWQTVKDGTAAATAVMEAVTGVIDDISDAVDNLGVTQTVSGLMGSLSAMKGSVTSLINQPAMLASSLMGALSGVSSLCDTRTAFSTWNRLAQRFERRHAATAGRQGTITTSYNSPVAEKNIATLNYVMLAAAQTYRAEAASQALTAALDFSRRMDNAARAPVLDAPSTTTGTASGASSTSATVTQGQLQLTAITPDGGFSQVSFSDSGTATPPVFESVSDIEKTTAMLGAALDSVILTASEQGFSTDSVQLTQLRLLVVADLEKRGLQLAGSESHHLPETLPAMVALYRFTGNSRNWQRLARRNGISNPLFVPGGVSIEVINE", "notes": "tube initiator protein gp43 (N protein, DNA circularization protein) of myophage Mu, as it stands in the virion; Hexamer; Model deposited here; also called N protein; DNA circularization protein; source: phage Mu virions grown on E. coli (ATCC 23724), purified (PEG 8000/NaCl precipitation, CsCl gradient)"}, "B2": {"name": "tail sheath protein gp39 (natural protein, phage Mu, UniProt P79678 1-495, looked up)", "chain": "MSDISFNAIPSDVRVPLTYIEFDNSNAVSGTPAPRQRVLMFGQSGSKASAAPNVPVRIRSGSQASAAFGQGSMLALMADAFLNANRVAELWCIPQGNGTGNAAVGEISLSGTAGENGSLVTYIAGQRLAVSVAAGATGAALADLLVARIKGQPDLPVTAEVRADSGDDDTHADVVLSAKFTGALSAVDVRWNYYAGETTPYGIITAFKAASGKNGNPDISASIAGMGDLQYKYIVMPYTDEPNLNLLRTELQERWGPVNQADGFAVTVLSGTYGDISTFGVSRNDHLISCMGIAGAPEPSYLYAATLCAVASQALSIDPARPLQTLTLPGRMPPAVGDRFTWSERNALLFDGISTFNVNDGGEMQIERMITMYRTNKYGDSDPSYLNVNTIATLSYLRYSLRTRITQKFPNYKLASDGTRFATGQAVVTPSVIKTELLALFEEWENAGLVEDFDTFKEELYVARNKDDKDRLDVLCGPNLINQFRIFAAQVQFIL", "notes": "tail sheath protein gp39 of myophage Mu, as it stands in the virion; Hexameric rings, 30 of them stacked in the tail; Model deposited here; source: phage Mu virions grown on E. coli (ATCC 23724), purified (PEG 8000/NaCl precipitation, CsCl gradient)"}}, "test_in_all_cases": "cryo-EM structure; purified phage Mu virions in the extended state (native phage) in phage buffer (10 mM MgCl2, 5 mM NaCl, 10 mM Tris-HCl, pH 7.4); icosahedral, symmetry-mismatch and local reconstruction; 3.2 Å (3-fold capsid), 3.4 Å (portal-adaptor), 3.5 Å (terminator-tail), 3.3 Å (baseplate)", "key": {"[1]": {"molecular_target": "tape measure protein (TMP) gp42 (phage Mu)"}, "[2]": {"molecular_target": "tail terminator protein gp37 (phage Mu)"}, "[3]": {"molecular_target": "adaptor protein gp36 (phage Mu)"}, "[4]": {"molecular_target": "major capsid protein (MCP) gp34 (phage Mu)"}, "[5]": {"molecular_target": "the molecule itself"}, "[6]": {"molecular_target": "B1", "details": "both partners purified"}, "tail sheath protein gp39": {"molecular_target": "B2", "details": "both partners purified"}}}
{"molecule": "tape measure protein (TMP) gp42 (natural protein)", "values": [{"measurement": "stoichiometry N", "setting": "[1]", "value": 3}]}
{"molecule": "tail terminator protein gp37 (natural protein)", "values": [{"measurement": "stoichiometry N", "setting": "[2]", "value": 6}]}
{"molecule": "adaptor protein gp36 (natural protein)", "values": [{"measurement": "stoichiometry N", "setting": "[3]", "value": 12}]}
{"molecule": "major capsid protein (MCP) gp34 (natural protein)", "values": [{"measurement": "stoichiometry N", "setting": "[4]", "value": 415}]}
{"molecule": "baseplate wedge protein 2 (BW2) gp47 (natural protein, phage Mu, UniProt Q9T1V2 1-360, looked up, baseplate wedge protein 2 gp47 of myophage Mu, as it stands in the virion; Two conformers (BW2-i, BW2-o) in each of the six wedges; Model deposited here; also called BW2-i; BW2-o; source: phage Mu virions grown on E. coli (ATCC 23724), purified (PEG 8000/NaCl precipitation, CsCl gradient)) MAYSPPTLSSLIARTEQNIEQRLPGSWPQAREKTLSAIAYAQAGLAAGCHEHISWVGRQIIPSTADEDELLEHCRFWGVRRKQATAASGPLTVTTSAATTIPAGTRWQRADGVVYSLADTIVIDRAGTTEITVTALAAGEAGNTGENTLLTLITPVACVVSDAITVKGFSGGADIESAAELLSRLEYRVQYPPFGGNQFDYVRWAREVSGVTRAWCFPTWKGGGTVGVTFVMDNRSNIFPQPADVERVADYIAGHTDPITGLIVGQPDGVNVTVFAPKAKPVNPRIYISPKTAELKQAITNAINTMFFNEVMPGGALAPSRIIRAVAGVTGLDDFEVRFPTEIQRSENTELLTAGTIEWL", "values": [{"measurement": "binding result", "setting": "[5]", "value": "binds"}, {"measurement": "binding result", "setting": "[6]", "value": "binds"}]}
{"molecule": "B1", "values": [{"measurement": "stoichiometry N", "setting": "[5]", "value": 6}]}
{"molecule": "portal protein gp29 (natural protein, phage Mu, UniProt Q9T1W5 1-512, looked up, portal protein gp29 of myophage Mu, as it stands in the virion; Dodecamer; Model deposited here; source: phage Mu virions grown on E. coli (ATCC 23724), purified (PEG 8000/NaCl precipitation, CsCl gradient); copies: 12) MGRILDISGQPFDFDDEMQSRSDELAMVMKRTQEHPSSGVTPNRAAQMLRDAERGDLTAQADLAFDMEEKDTHLFSELSKRRLAIQALEWRIAPARDASAQEKKDADMLNEYLHDAAWFEDALFDAGDAILKGYSMQEIEWGWLGKMRVPVALHHRDPALFCANPDNLNELRLRDASYHGLELQPFGWFMHRAKSRTGYVGTNGLVRTLIWPFIFKNYSVRDFAEFLEIYGLPMRVGKYPTGSTNREKATLMQAVMDIGRRAGGIIPMGMTLDFQSAADGQSDPFMAMIGWAEKAISKAILGGTLTTEAGDKGARSLGEVHDEVRREIRNADVGQLARSINRDLIYPLLALNSDSTIDINRLPGIVFDTSEAGDITALSDAIPKLAAG", "values": [{"measurement": "stoichiometry N", "setting": "[5]", "value": 12}]}
{"molecule": "G(+) type fiber protein gp49 (natural protein, phage Mu, UniProt Q9T1V0 1-504, looked up, G(+) type tail fiber protein gp49 of myophage Mu, as it stands in the virion; only the N-terminus was modelled; Trimer; six fibers in the baseplate; Model deposited here; source: phage Mu virions grown on E. coli (ATCC 23724), purified (PEG 8000/NaCl precipitation, CsCl gradient)) MFYIDNDSGVTVMPPVSAQRSAIVRWFSEGDGNNVITWPGMDWFNIVQAELLNTLEEAGIQPDKTKLNQLALSIKAIMSNNALLIKNNLSEIKTAGASAQRTARENLDIYDASLNKKGLVQLTSATDSPSETLAATAKAVKIAMDNANARLAKDRNGADIPNKPLFIQNLGLQETVNRARNAVQKNGDTLSGGLTFENDSILAWIRNTDWAKIGFKNDADSDTDSYMWFETGDNGNEYFKWRSKQSTTTKDLMNLKWDALSVLVNAIVNGEVISKSANGLRIAYGNYGFFIRNDGSNTYFMLTNSGDNMGTYNGLRPLWINNATGAVSMGRGLNVSGDTLSDRFAINSSNGMWIQMRDNNAIFGKNIVNTDSAQALLRQNHADRKFMIGGLGNKQFGIYMINNSRTANGTDGQAYMDNNGNWLCGAQVIPGNYANFDSRYVRDVRLGTQSLTGGLSRDYKAPSGHVITGFHTNGDWEMQGGDDKVYIRPVQKNINGTWYNVASA", "values": [{"measurement": "stoichiometry N", "setting": "[5]", "value": 3}]}
{"molecule": "hub protein gp44 (natural protein, phage Mu, UniProt P08558 1-379, looked up, baseplate hub protein gp44 of myophage Mu, as it stands in the virion; Trimer; Model deposited here; source: phage Mu virions grown on E. coli (ATCC 23724), purified (PEG 8000/NaCl precipitation, CsCl gradient)) MSNTVTLRADGRLFTGWTSVSVTRSIESVAGYFELGVNVPPGTDLSGLAPGKKFTLEIGGQIVCTGYIDSRRRQMTADSMKITVAGRDKTADLIDCAAVYSGGQWKNRTLEQIARDLCAPYGVTVRWELSDKESSAAFPGFTLDHSETVYEALVRASRARGVLMTSNAAGELVFSRAASTATDELVLGENLLTLDFEEDFRDRFSEYTVKGYARANGAEGDDIDAKSIVSRKGTATDSDVTRYRPMIIIADSKITAKDAQARALREQRRRLAKSITFEAEIDGWTRKDGQLWMPNLLVTIDASKYAIKTTELLVSKVTLILNDQDGLKTRVSLAPREGFLVPVESDRKNRKGGDSNGGIDALVEDYYRRHPEKTPPWKE", "values": [{"measurement": "stoichiometry N", "setting": "[5]", "value": 3}]}
{"molecule": "B2", "values": [{"measurement": "stoichiometry N", "setting": "[5]", "value": 6}]}
{"molecule": "tail tube protein gp40 (natural protein, phage Mu, UniProt P79679 1-118, looked up, tail tube protein gp40 of myophage Mu, as it stands in the virion; Hexameric rings, 30 of them stacked in the tail; Model deposited here; source: phage Mu virions grown on E. coli (ATCC 23724), purified (PEG 8000/NaCl precipitation, CsCl gradient)) MAGNQRQGVAFIRVNGMELESMEGASFTPSGITREEVTGSRVYGWKGKPRAAKVECKIPGGGPIGLDEIIDWENITVEFQADTGETWMLANAWQADEPKNDGGEISLVLMAKQSKRIA", "values": [{"measurement": "binding result", "setting": "tail sheath protein gp39", "value": "binds"}, {"measurement": "stoichiometry N", "setting": "[5]", "value": 6}]}
